Columns and labels:
Assay in all cases: HPLC folding test (Superdex 200), HLA class II monomer protein with 50-fold molar peptide, against solvent only
[1] = biological target: T1, HLA class II monomer protein DRB1* 0405 (human)
T1 construct: Soluble MHC class II monomer protein used in the HPLC folding test
Protocol: (§1) After reacting the solution at 37° C., the retention time was analyzed using HPLC.
(§2) As a folding buffer, a 10% amount of a mixed solution of an HLA class II monomer protein and a peptide was added. The amount of the folding buffer added was calculated using the following calculation equation.
(§3) To a glass vial charged with an HLA class II monomer protein, a peptide solution and a folding buffer were added in a calculated amount, and the mixture was allowed to stand at 37° C. overnight. HPLC (Waters 2695 Separation Module) was started, and a Seperdex 200 column was equilibrated with an equilibrating buffer. To all samples, 300 μL of the equilibrate buffer was added and well mixed, and a 100 μL portion of the mixture was used as a sample injection volume to calculate the retention time. Analysis time was 50 minutes. The criterion for the folding of an HLA class II monomer protein with a peptide is a shift of the retention time of not less than 0.1 minute as compared with a control (solvent only).

[2] = biological target: T2, HLA class II monomer protein DRB1* 0901 (human)
T2 construct: Soluble MHC class II monomer protein used in the HPLC folding test; also called HLA-DRB1* 0901 molecule
Protocol: as §1, §2, §3

[3] = biological target: T3, HLA class II monomer protein DRB1* 0101 (human)
T3 construct: Soluble MHC class II monomer protein used in the HPLC folding test
Protocol: as §1, §2, §3

[4] = biological target: T4, HLA class II monomer protein DRB1* 0803 (human)
T4 construct: Soluble MHC class II monomer protein used in the HPLC folding test; also called HLA-DRB1* 0803 molecule
Protocol: as §1, §2, §3

[5] = biological target: T5, HLA class II monomer protein DRB4* 0101 (human)
T5 construct: Soluble MHC class II monomer protein used in the HPLC folding test
Protocol: as §1, §2, §3

[6] = biological target: T6, HLA class II monomer protein DRB1* 1501 (human)
T6 construct: Soluble MHC class II monomer protein used in the HPLC folding test; also called HLA-DRB1* 1501 molecule
Protocol: as §1, §2, §3

[7] = biological target: T7, HLA class II monomer protein DRB1* 1502 (human)
T7 construct: Soluble MHC class II monomer protein used in the HPLC folding test; also called HLA-DRB1* 1502 molecule
Protocol: as §1, §2, §3

Measured: degree of shift of the retention time

B1: WT1-332 (a peptide consisting of the amino acid sequence depicted in SEQ ID NO:2) (peptide)
peptide: KRYFKLSHLQMHSRKH
notes: Synthetic peptide; part of human WT1 protein; also called WT1 peptide
≥ 0.1 min: all assays above

Reference: patent US20130266958A1 (INTERNATIONAL INSTITUTE OF CANCER IMMUNOLOGY, published 2013)
